Test results as given in PMC11933327, “Asymmetric activation of dimeric ATM/Tel1 kinase” (Cell Discovery, 2025).
One block for each molecule: values may come before it.

What was measured:
active ATM/Tel1 dimer = assay: Mass photometry of GraFix-assembled ATM/Tel1-CHK2 complex; assay type: binding, Schizosaccharomyces pombe; conditions: over-saturated full-length CHK2, AMP-PNP, mass photometry 25 °C, 20 nM final protein
Procedure: to SDS- PAGE and analyzed by Western blot (WB) using pan- acetylated -Lysine (Rabbit monoclonal, Cat# 9441S, Cell Signaling Technology). and phospho-ATM/ATR substrate (pSQ/pTQ motif, Rabbit monoclonal, Cat# 6966, Cell Signaling Technology) antibodies.
Surface plasmon resonance
Interaction analysis between ATM/Tel1 in different states and CHK2 was performed at 20 °C using a Biacore 8K (GE Healthcare) by immobilizing CHK2 onto a CM5 sensor chip. A twofold dilution series of […] was injected at a flow rate of 30 µl min –1 in PBS running buffer. All conditions were tested for at least five different antibody concentrations, and the blank channel of the chip served as the negative control. After each cycle, the sensor was regenerated with 10 mM NaOH.
Data processing and kinetic analyses were performed using Biacore 8K Evaluation Software […]
To determine the stoichiometry and mass distribution between active ATM/Tel1 and its substrate CHK2, standard mass photometry landing assays were performed at 25 °C using a TwoMP instrument (Refeyn) mounted on an active anti-vibration platform. […] Bovine serum albumin standards (Beyotime) were measured on the same day to calibrate extracted particle contrast relative to mass. […]

[1] = target: ATM/Tel1, basal state (Schizosaccharomyces pombe) (UniProt O74630); assay: cryo-EM structure; basal state; resolution improved from 7.8 Å to 4.3 Å with a new algorithm
[2] = target: ATM/Tel1, active state (endogenously activated by DNA damage) (Schizosaccharomyces pombe) (UniProt O74630); assay: mass photometry; active ATM/Tel1 incubated with over-saturated full-length CHK2, complex fractionated by GraFix
[3] = target: ATM/Tel1, active state (endogenously activated by DNA damage) (Schizosaccharomyces pombe) (UniProt O74630); assay: cryo-EM structure; active wild-type ATM/Tel1 incubated with the CHK2 63-74 peptide and AMP-PNP in vitro; Structure 2, 3.6 Å
[4] = target: ATM/Tel1, active state (endogenously activated by DNA damage) (Schizosaccharomyces pombe, UniProt O74630 1-2812, autophosphorylation and acetylation (sites not given)); assay: SPR
ATM/Tel1, active state (endogenously activated by DNA damage), sequence (O74630 whole entry): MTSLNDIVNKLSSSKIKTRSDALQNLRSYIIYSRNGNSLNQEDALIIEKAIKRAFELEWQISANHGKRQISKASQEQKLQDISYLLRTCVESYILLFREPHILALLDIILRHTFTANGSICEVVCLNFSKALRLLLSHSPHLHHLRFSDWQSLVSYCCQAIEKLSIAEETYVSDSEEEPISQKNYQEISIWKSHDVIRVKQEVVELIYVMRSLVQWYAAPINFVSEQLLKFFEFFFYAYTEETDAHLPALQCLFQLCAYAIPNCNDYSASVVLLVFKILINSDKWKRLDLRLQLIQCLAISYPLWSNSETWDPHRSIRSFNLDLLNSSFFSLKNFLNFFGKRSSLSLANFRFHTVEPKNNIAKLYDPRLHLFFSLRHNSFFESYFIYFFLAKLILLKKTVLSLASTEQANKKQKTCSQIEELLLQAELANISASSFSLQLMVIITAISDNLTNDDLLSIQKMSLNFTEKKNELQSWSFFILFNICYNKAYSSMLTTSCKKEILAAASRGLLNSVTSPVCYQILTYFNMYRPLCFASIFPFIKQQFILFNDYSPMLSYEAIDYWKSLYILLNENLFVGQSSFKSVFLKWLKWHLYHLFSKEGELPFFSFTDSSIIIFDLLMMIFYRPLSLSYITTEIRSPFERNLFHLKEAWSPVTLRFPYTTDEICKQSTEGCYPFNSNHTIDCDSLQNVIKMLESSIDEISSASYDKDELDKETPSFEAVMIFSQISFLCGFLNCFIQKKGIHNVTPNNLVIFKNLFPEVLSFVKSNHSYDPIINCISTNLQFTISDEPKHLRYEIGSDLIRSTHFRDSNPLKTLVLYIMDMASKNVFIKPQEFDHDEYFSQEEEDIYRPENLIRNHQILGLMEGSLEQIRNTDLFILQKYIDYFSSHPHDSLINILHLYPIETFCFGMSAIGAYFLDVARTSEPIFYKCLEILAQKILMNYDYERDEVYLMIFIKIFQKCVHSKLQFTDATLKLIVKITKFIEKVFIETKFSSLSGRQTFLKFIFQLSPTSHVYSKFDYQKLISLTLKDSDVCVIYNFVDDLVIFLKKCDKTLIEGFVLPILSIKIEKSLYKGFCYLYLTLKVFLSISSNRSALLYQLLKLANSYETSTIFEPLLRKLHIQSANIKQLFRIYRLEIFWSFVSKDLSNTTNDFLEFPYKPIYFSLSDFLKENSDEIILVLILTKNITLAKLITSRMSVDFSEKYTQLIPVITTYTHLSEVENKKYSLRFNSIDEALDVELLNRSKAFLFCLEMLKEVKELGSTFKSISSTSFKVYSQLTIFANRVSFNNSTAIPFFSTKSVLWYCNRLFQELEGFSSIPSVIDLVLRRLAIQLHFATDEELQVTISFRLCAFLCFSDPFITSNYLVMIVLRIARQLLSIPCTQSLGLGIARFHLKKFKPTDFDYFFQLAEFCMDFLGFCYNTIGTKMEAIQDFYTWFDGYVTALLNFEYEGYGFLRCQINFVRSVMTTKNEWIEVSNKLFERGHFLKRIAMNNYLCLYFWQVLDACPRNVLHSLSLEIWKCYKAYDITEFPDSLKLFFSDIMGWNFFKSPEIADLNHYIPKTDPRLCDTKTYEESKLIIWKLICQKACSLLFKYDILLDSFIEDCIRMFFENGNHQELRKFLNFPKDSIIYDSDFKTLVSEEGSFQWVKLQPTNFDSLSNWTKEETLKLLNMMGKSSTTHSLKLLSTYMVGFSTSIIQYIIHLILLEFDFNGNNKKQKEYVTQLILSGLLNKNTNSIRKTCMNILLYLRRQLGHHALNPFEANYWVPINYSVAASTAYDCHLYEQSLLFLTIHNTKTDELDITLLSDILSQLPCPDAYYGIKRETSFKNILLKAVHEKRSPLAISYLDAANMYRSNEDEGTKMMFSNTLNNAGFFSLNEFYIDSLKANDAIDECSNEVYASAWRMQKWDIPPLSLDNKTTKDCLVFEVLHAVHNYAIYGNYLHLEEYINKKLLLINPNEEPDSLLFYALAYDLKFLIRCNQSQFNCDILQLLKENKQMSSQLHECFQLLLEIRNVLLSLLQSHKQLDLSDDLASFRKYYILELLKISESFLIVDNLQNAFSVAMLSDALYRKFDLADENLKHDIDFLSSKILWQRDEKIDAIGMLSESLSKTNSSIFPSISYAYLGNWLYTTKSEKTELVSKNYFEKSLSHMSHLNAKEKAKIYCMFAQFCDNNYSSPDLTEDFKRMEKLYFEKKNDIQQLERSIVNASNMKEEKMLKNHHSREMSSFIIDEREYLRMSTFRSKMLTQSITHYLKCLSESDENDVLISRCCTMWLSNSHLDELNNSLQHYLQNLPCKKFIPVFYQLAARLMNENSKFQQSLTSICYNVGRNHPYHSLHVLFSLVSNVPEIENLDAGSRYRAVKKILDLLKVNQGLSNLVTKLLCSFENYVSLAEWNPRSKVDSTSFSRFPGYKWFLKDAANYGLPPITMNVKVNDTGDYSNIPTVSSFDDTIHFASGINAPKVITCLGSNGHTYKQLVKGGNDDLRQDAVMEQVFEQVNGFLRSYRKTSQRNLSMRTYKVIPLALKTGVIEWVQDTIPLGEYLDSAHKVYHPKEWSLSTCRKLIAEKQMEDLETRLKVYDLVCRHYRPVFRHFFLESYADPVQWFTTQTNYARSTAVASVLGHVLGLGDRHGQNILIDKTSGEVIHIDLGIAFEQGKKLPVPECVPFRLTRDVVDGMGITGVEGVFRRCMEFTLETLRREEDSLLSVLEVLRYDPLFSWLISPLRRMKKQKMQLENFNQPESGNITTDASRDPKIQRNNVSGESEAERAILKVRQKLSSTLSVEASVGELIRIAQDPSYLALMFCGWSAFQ

ATM/Tel1, basal state [5] = target: ATM/Tel1, basal state (Schizosaccharomyces pombe, UniProt O74630 1-2812); assay: SPR
ATM/Tel1, basal state [6] = target: T1, ATM/Tel1, basal state (Schizosaccharomyces pombe, UniProt O74630 1-2812); assay: SPR; CHK2 (full length or peptide) at varied concentrations on basal or active ATM/Tel1; conditions: both partners purified
T1 construct: ATM/Tel1 kinase of Schizosaccharomyces pombe, basal state, symmetric homodimer; also called basal ATM/Tel1; basal-state ATM/Tel1; source: purified

Molecule: full-length CHK2: human full-length CHK2, C-terminal 6× His tag, expressed in E. coli BL21(DE3)
- CHK2 molecules bound per ATM/Tel1 dimer (active ATM/Tel1 dimer): only one CHK2 molecule is bound to an ATM/Tel1 dimer

Molecule: ATM/Tel1, active state (endogenously activated by DNA damage), O74630 1-2812
- stoichiometry N [2]: 2
- stoichiometry N [3]: 2

Continued, in another order:

- stoichiometry N [1]: 2
Molecule: ATM/Tel1, basal state, O74630 1-2812

- Kd (ATM/Tel1, basal state [5]): 296 µM
- fold reduction of affinity against active ATM/Tel1 (ATM/Tel1, basal state [6]): > 120 fold
B1: CHK2 substrate peptide (CHK2 63-74) (peptide, UniProt O96017 63-74, looked up)
peptide: LETVSTQELYSI
notes: CHK2 residues 63-74; also called CHK2 peptide
- Kd [4]: 2.37 µM
